Laboratory results as given in patent US20060046271A1 (VANDERBILT UNIVERSITY, published 2006).

Target: α2bβ3 receptor (mouse (endogenous, tumor-bearing …, UniProt Q9QUM0 32-1033; O54890 26-787)
Assay: cell-based or functional assay

Sequence of α2bβ3 receptor (mouse (Q9QUM0 32-1033, chain 1 of 2): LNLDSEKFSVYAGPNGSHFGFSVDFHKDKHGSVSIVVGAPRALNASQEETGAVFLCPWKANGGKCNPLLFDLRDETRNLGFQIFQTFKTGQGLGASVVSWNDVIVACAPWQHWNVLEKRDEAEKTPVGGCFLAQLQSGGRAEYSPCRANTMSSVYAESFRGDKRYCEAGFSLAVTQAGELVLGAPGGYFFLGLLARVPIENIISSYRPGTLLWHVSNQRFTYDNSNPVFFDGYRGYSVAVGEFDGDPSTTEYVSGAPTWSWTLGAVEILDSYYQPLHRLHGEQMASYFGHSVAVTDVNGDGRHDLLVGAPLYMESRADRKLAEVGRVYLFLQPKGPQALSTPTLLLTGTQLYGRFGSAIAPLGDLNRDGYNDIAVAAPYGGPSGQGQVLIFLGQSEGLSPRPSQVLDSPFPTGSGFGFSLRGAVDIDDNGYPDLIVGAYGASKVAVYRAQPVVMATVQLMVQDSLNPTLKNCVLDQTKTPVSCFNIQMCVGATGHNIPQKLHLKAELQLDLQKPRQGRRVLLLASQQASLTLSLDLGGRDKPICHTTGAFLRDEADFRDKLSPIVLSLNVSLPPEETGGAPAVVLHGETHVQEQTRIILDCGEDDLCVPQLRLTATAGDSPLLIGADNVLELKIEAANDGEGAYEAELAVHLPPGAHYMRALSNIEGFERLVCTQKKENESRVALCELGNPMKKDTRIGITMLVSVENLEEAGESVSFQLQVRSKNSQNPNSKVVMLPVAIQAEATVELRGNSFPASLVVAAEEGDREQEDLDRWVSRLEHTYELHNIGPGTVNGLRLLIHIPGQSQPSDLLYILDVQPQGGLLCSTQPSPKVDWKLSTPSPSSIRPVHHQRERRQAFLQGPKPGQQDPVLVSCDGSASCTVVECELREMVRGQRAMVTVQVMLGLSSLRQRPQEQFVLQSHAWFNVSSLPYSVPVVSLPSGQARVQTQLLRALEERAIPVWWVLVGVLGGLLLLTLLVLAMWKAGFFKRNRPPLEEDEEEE
Sequence of α2bβ3 receptor (mouse (O54890 26-787, chain 2 of 2): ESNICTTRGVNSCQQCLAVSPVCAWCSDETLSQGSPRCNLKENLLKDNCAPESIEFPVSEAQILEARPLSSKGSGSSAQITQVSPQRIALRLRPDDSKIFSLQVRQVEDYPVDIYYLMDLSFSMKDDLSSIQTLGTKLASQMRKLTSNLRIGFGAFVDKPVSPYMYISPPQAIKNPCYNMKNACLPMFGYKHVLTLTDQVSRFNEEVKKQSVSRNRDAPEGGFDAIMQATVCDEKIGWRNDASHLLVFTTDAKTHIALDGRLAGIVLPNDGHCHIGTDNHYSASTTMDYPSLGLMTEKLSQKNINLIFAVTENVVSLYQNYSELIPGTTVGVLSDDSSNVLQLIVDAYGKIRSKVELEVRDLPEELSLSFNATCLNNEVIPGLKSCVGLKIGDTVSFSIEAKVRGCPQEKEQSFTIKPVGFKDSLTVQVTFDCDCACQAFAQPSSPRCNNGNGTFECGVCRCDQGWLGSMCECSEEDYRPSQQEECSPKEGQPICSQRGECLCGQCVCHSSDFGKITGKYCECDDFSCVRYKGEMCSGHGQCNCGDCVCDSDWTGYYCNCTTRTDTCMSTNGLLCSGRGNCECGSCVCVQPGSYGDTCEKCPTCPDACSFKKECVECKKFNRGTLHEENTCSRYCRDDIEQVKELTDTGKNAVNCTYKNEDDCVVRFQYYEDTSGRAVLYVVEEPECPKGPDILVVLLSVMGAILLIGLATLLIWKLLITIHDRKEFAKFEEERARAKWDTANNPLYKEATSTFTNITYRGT

B1: Phage encoding SLRGDGSSV (SEQ ID NO: 2) on the capsid protein (peptide)
peptide: MASMTGGQQMGTNQGKGVVAAGDKLALFLKVFGGEVLTAFARTSVTTSRHMVRSISSGKSAQFPVLGRTQAAYLAPGENLDDKRKDIKHTEKVITIDGLLTADVLIYDIEDAMNHYDVRSEYTSQLGESLAMAADGAVLAEIAGLCNVESKYNENIEGLGTATVIETTQNKAALTDQVALGKEIIAALTKARAALTKNYVPAADRVFYCDPDSYSAILAALMPNAANYAALIDPEKGSIRNVMGFEVVEVPHLTAGGAGTAREGTTGQKHVFPANKGEGNVKVAKDNVIGLFMHRSAVGTVKLRDLALERARRANFQADQIIAKYAMGHGGLRPEAAGAVVFQSGVMLNSLRGDGSSV
phage binding in tumor (phage recovered, quantified by plaque formation): 4 fold
